What was measured:
[1] = target: PapC usher (Escherichia coli) (UniProt P07110); conditions: cited from earlier work
[2] = target: PapDG chaperone-adhesin complex (His-tagged PapD, class II PapG), purified and coumarin-labeled (Escherichia coli) (UniProt P15319); test: other fluorescence titration

| Substance | Kd [1] | Kd [2] |
| --- | --- | --- |
| PapDG chaperone-subunit complex (from UniProt P15319) | 90 nM |  |
| PapC R652A, purified, His-tag cleaved off (pQY652) (natural protein) |  | 1590 nM |
| PapC F21A, purified, His-tag cleaved off (pQY21) (from UniProt P07110 25-836) (natural protein) |  | 62 nM |
| PapC usher, wild type, purified, His-tag cleaved off (pDG2) (from UniProt P07110 25-836) (natural protein) |  | 59 nM |

From PMC2911020
